# Results taken from IntAct's records for PubMed 29039417.
# B1: BBSome complex member BBS1 (Homo sapiens), Q8NFJ9 (parent)
# chain: MAAASSSDSDACGAESNEANSKWLDAHYDPMANIHTFSACLALADLHGDGEYKLVVGDLGPGGQQPRLKVLKGPLVMTESPLPALPAAAATFLMEQHEPRTPALALASGPCVYVYKNLRPYFKFSLPQLPPNPLEQDLWNQAKEDRIDPLTLKEMLESIRETAEEPLSIQSLRFLQLELSEMEAFVNQHKSNSIKRQTVITTMTTLKKNLADEDAVSCLVLGTENKELLVLDPEAFTILAKMSLPSVPVFLEVSGQFDVEFRLAAACRNGNIYILRRDSKHPKYCIELSAQPVGLIRVHKVLVVGSTQDSLHGFTHKGKKLWTVQMPAAILTMNLLEQHSRGLQAVMAGLANGEVRIYRDKALLNVIHTPDAVTSLCFGRYGREDNTLIMTTRGGGLIIKILKRTAVFVEGGSEVGPPPAQAMKLNVPRKTRLYVDQTLREREAGTAMHRAFQTDLYLLRLRAARAYLQALESSLSPLSTTAREPLKLHAVVQGLGPTFKLTLHLQNTSTTRPVLGLLVCFLYNEALYSLPRAFFKVPLLVPGLNYPLETFVESLSNKGISDIIKVLVLREGQSAPLLSAHVNMPGSEGLAAA
# partner: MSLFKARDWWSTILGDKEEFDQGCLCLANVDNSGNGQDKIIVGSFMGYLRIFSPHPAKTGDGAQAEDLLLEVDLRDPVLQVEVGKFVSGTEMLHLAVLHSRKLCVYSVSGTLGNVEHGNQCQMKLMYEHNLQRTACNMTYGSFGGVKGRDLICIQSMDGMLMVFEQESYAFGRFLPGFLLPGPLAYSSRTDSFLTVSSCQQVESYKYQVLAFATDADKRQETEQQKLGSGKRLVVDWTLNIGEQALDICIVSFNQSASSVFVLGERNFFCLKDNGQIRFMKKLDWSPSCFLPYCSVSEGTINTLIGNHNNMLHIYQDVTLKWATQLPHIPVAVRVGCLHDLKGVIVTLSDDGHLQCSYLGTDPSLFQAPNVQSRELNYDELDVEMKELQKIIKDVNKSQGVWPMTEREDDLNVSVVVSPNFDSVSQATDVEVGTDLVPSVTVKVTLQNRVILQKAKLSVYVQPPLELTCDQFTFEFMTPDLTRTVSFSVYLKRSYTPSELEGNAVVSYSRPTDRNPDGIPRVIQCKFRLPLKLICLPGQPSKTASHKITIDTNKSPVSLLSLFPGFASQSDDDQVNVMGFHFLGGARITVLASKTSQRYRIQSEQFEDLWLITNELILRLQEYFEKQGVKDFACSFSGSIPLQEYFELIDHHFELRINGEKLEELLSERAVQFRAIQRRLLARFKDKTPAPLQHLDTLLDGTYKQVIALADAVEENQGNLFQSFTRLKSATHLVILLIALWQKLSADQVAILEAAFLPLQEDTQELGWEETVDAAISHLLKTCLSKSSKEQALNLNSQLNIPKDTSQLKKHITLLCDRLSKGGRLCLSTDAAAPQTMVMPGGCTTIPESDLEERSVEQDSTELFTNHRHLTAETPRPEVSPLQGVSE
# Variants of: B1
# Conditions: with pthb1_human BBS9, Q3SYG4
row,Variant,effect of a mutation on the interaction
1,S529E,with no effect
2,S529K,with no effect
3,S529A,with no effect
4,R512A,with no effect
5,R512E,with no effect
6,R512K,with no effect
7,L548A,with no effect
8,L548K,with no effect
9,L548E,disrupting interaction strength
10,K536E,with no effect
11,K536A,with no effect
12,V552K,disrupting interaction strength
13,V552A,with no effect
14,V552E,disrupting interaction strength
15,A526K,with no effect
16,A526E,with no effect
17,L515A,with no effect
18,L515E,with no effect
19,L515K,with no effect
20,L555A,with no effect
21,L555K,with no effect
22,L555E,with no effect
23,C520E,with no effect
24,C520A,with no effect

row,Variant,effect of a mutation on the interaction
1,C520K,with no effect
2,N524K,with no effect
3,N524A,disrupting interaction strength
4,N524E,with no effect
5,K558E,with no effect
6,K558A,with no effect
7,E525K,with no effect
8,E525A,with no effect
9,P547A,with no effect
10,P547K,with no effect
11,P547E,with no effect
12,S556A,with no effect
13,S556E,with no effect
14,S556K,with no effect
15,P538E,with no effect
16,P538K,with no effect
17,P538A,with no effect
18,P538L,disrupting interaction strength
19,L518P,disrupting interaction strength
20,L518E,with no effect
21,L518K,with no effect
22,L518A,with no effect
23,N557A,with no effect
24,N557K,with no effect

row,Variant,effect of a mutation on the interaction
1,N557E,with no effect
2,P542E,with no effect
3,P542K,disrupting interaction strength
4,P542A,with no effect
5,P513K,with no effect
6,P513E,with no effect
7,P513A,with no effect
8,S554K,with no effect
9,S554A,with no effect
10,S554E,disrupting interaction strength
11,L517K,disrupting interaction strength
12,L517E,disrupting interaction strength
13,L517A,with no effect
14,L539E,disrupting interaction strength
15,L539A,disrupting interaction strength
16,L539K,disrupting interaction strength
17,I560A,with no effect
18,I560E,with no effect
19,I560K,with no effect
20,F535K,with no effect
21,F535A,with no effect
22,F535E,with no effect
23,S561A,with no effect
24,S561K,with no effect

row,Variant,effect of a mutation on the interaction
1,S561E,with no effect
2,L544K,with no effect
3,L544E,with no effect
4,L544A,with no effect
5,Y528C,disrupting interaction strength
6,Y528A,disrupting interaction strength
7,Y528E,disrupting interaction strength
8,Y528K,disrupting interaction strength
9,G516K,with no effect
10,G516A,disrupting interaction strength
11,G516E,with no effect
12,L527A,with no effect
13,L527P,disrupting interaction strength
14,L527E,with no effect
15,L527K,with no effect
16,V541E,with no effect
17,V541A,with no effect
18,V541K,with no effect
19,T550A,with no effect
20,T550K,with no effect
21,T550E,with no effect
22,E549A,with no effect
23,E549K,with no effect
24,E553A,with no effect

row,Variant,effect of a mutation on the interaction
1,E553K,with no effect
2,L540E,disrupting interaction strength
3,L540A,with no effect
4,L540K,disrupting interaction strength
5,A533K,with no effect
6,A533E,with no effect
7,G543K,with no effect
8,G543E,with no effect
9,G543A,with no effect
10,P531A,with no effect
11,P531K,with no effect
12,P531E,with no effect
13,D562K,with no effect
14,D562A,with no effect
15,D562E,with no effect
16,L530D,disrupting interaction strength
17,L530E,disrupting interaction strength
18,L530Q,disrupting interaction strength
19,L530T,disrupting interaction strength
20,L530K,disrupting interaction strength
21,L530A,disrupting interaction strength
22,L530V,disrupting interaction strength
23,L530N,disrupting interaction strength
24,L530R,disrupting interaction strength

row,Variant,effect of a mutation on the interaction
1,I564K,disrupting interaction strength
2,I564A,disrupting interaction strength
3,I564E,disrupting interaction strength
4,F521K,disrupting interaction strength
5,F521A,with no effect
6,F521E,disrupting interaction strength
7,L522E,with no effect
8,L522K,with no effect
9,L522A,with no effect
10,F551A,with no effect
11,F551E,with no effect
12,F551K,with no effect
13,G559E,with no effect
14,G559A,with no effect
15,G559K,with no effect
16,I563E,with no effect
17,I563K,with no effect
18,I563A,with no effect
19,F534K,with no effect
20,F534E,with no effect
21,F534A,with no effect
22,V519A,with no effect
23,V519K,disrupting interaction strength
24,V519E,disrupting interaction strength

row,Variant,effect of a mutation on the interaction
1,Y546K,with no effect
2,Y546E,disrupting interaction strength
3,Y546A,with no effect
4,Y523E,disrupting interaction strength
5,Y523K,with no effect
6,Y523A,disrupting interaction strength
7,T511E,with no effect
8,T511K,with no effect
9,V537K,disrupting interaction strength
10,V537A,with no effect
11,V537E,disrupting interaction strength
12,V514A,with no effect
13,V514K,with no effect
14,V514E,with no effect
15,N545E,with no effect
16,N545A,with no effect
17,N545K,with no effect
18,R532E,with no effect
19,R532A,with no effect
20,R532K,with no effect

# Variants of: B1
# Conditions: with pthb1_human BBS9, Q3SYG4
# Remark: another data set of the same source
row,Variant,effect of a mutation on the interaction
1,L548E,with no effect

# Variants of: B1
# Conditions: with pthb1_human BBS9, Q3SYG4
# Remark: another data set of the same source
row,Variant,effect of a mutation on the interaction
1,I564A,with no effect
2,Y546K,disrupting interaction strength
